Assay results: publication PMC11544074

Molecular target: GFP-pNLRC3-8xHis (Sus scrofa (pig), UniProt A0A287AW79 1-1066)
Test: MST

B1: HSV120 dsDNA (unlabelled) (dsDNA)
DNA 1: TAAGACACGATGCGATAAAATCTGTTTGTAAAATTTATTAAGGGTACAAATGCCCTAGCTAGACACGATGCGATAAAATCTGTTTGTAAAATTTATTAAGGGTACAAATTGCCCTAGC
DNA 2: GCTAGGGCAATTTGTACCCTTAATAAATTTTACAAACAGATTTTATCGCATCGTGTCTAGCTAGGGCATTTGTACCCTTAATAAATTTTACAAACAGATTTTATCGCATCGTGTCTTA
Kd: 10.1 µM
